The term Km denotes the concentration of substrate that gives half-maximal velocity. Broadly, the kcat is the number of substrate molecules converted per active site and unit of time at saturation. As usually defined, the kcat/Km is the second-order rate constant that governs catalysis at low substrate concentration.

Substrate in the data set “purified protein”: CC(C)CCC[C@@H](C)[C@H]1CC[C@H]2[C@@H]3CC=C4C[C@@H](O)CC[C@]4(C)[C@H]3CC[C@]12C
In words: purified protein. The conditions noted are these: glycosyl acceptor, 0.8 mM UDP-Glc, 50 mM Tris-HCl pH 7.4 (pH 7.5), 5 mM MgCl2, 30 °C, apparent.

Substrate in data set [1]: O=c1ccn([C@@H]2O[C@H](CO[P@@](=O)(O)O[P@@](=O)(O)O[C@H]3O[C@H](CO)[C@@H](O)[C@H](O)[C@H]3O)[C@@H](O)[C@H]2O)c(=O)[nH]1
In words: HPLC-MS/MS of sterol glucoside formation, Michaelis-Menten fit. The class given is biochemical, Micromonospora echinospora. The settings on record: glycosyl donor, 0.6 mM β-sitosterol as acceptor, 50 mM Tris-HCl pH 7.4 (pH 7.5), 5 mM MgCl2, 30 °C, apparent. The text has this:
(§1) HPLC-MS/MS of sterol glucoside formation, Michaelis-Menten fit on MrSGT

Substrate in data set [2]: [H][C@@]12CC=C3C[C@@H](O)CC[C@]3(C)[C@@]1([H])CC[C@@]1(C)[C@@]2([H])CC[C@]1([H])[C@H](C)CC[C@@H](CC)C(C)C
The description is as above. The settings on record: glycosyl acceptor, 0.8 mM UDP-Glc, 50 mM Tris-HCl pH 7.4 (pH 7.5), 5 mM MgCl2, 30 °C, apparent. The class given is biochemical, Micromonospora echinospora.
Description: as §1

Substrate in data set [3]: C=C(CC[C@@H](C)[C@H]1CC[C@H]2C3=CC[C@H]4[C@H](C)[C@@H](O)CC[C@]4(C)[C@H]3CC[C@]12C)C(C)C
The data set is described as above. It counts as biochemical, Micromonospora echinospora. The settings on record: glycosyl acceptor, 0.8 mM UDP-Glc, 50 mM Tris-HCl pH 7.4 (pH 7.5), 5 mM MgCl2, 30 °C, apparent.
Description: as §1

Substrate in data set [4]: CC(C)[C@H](C)CC[C@@H](C)[C@H]1CC[C@H]2[C@@H]3CC=C4C[C@@H](O)CC[C@]4(C)[C@H]3CC[C@]12C
The data set is described as above. The class given is biochemical, Micromonospora echinospora. The conditions noted are these: glycosyl acceptor, 0.8 mM UDP-Glc, 50 mM Tris-HCl pH 7.4 (pH 7.5), 5 mM MgCl2, 30 °C, apparent.
Description: as §1

Substrate in data set [5]: C/C=C(\CC[C@@H](C)[C@H]1CC[C@H]2[C@@H]3CC=C4C[C@@H](O)CC[C@]4(C)[C@H]3CC[C@]12C)C(C)C
The data set is described as above. It counts as biochemical, Micromonospora echinospora. The conditions noted are these: glycosyl acceptor, 0.8 mM UDP-Glc, 50 mM Tris-HCl pH 7.4 (pH 7.5), 5 mM MgCl2, 30 °C, apparent.
Description: as §1

B1: MrSGT (Micromonospora echinospora) (protein)
chain: MRILIATAGSRGDVAPYTGLGAALRRAGYDVAVATTDTFARMVRDAGLGFRRLPADTRGHAGVRSNREVVRAAGVHRGTGPGLRRRAVSEGTDLLLLSTTTAPLGWLIGEATGIRSLGVYLQPTAPTADFPPVVTGARSLGRLGNRTAGRLALRMADRIYAEAVAGLRERLCLPPLSAAAMRARQERAGWPVLHGFGTALVPRPADWRPGLEVVGPWWPHHDAGERLPSELEDFLDAGPRPVLVGFGSMAAGDGERLSELAVRALRRAGLRGILQSGNACLAAEGDDVLTVGDVPHALLFPRLAAVVHHGGAGTRRDPAGGRPLGGGPGDRRPEPFWAGRLARIGAAPAPVPFTTLTADGLAGALGRVVGDEAYARAAEKAARHLAAEDGAARV
notes: recombinant His-tagged protein expressed in E. coli BL21(DE3), purified; ORF from fosmid library
With B1, the Michaelis-Menten constant (Km) in “purified protein” came out at 450 ± 50 µM; in data set [1], 280 ± 30 µM; in data set [2], 90 ± 10 µM; in data set [3] it was 510 ± 60 µM; in data set [4], 280 ± 30 µM; in data set [5] it was 130 ± 20 µM. Also, the kcat in the data set “purified protein” is 0.132 ± 0.0185 s⁻¹; in data set [1], 0.122 ± 0.0172 s⁻¹; in data set [2], 0.122 ± 0.0172 s⁻¹; in data set [3], 0.13 ± 0.017 s⁻¹; in data set [4], 0.128 ± 0.0165 s⁻¹; in data set [5] it was 0.122 ± 0.0273 s⁻¹. The kcat/Km in “purified protein” was 292 M⁻¹ s⁻¹; in data set [2], 1350 M⁻¹ s⁻¹; in data set [3] it was 257 M⁻¹ s⁻¹; in data set [4] it was 457 M⁻¹ s⁻¹; in data set [5], 940 M⁻¹ s⁻¹.
